Assay results as given in patent US20240059769A1 (BIOLOJIC DESIGN, published 2024).

target: recombinant human IL-13 (human, UniProt P35225 35-146); assay: cell-based or functional assay
Sequence (P35225 35-146 limits assumed): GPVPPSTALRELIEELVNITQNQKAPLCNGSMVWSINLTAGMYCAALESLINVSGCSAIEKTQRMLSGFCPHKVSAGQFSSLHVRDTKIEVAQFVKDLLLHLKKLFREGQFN

| Binder | HEK-IL-13 [nM] (IC50, STAT6 reporter) |
| --- | --- |
| BDG38.084 (antibody, V domains shown) VH: QMQLVESGGGVVQPGRSLRLSCAASGFAFRTYGMHWVRQAPGKGLEWVAVIWDDGSNTHYADSVKGRFTITRDNSKNTLNLQMNSLRAEDTAVYYCVRAPQWYLTAEAFDLWGQGTMVTVSS VL: SYVLTQPPSVSVAPGETATITCGGNLIGAYLVHWYQQKPGQAPVLVVYDDVDRPDRIPERFSGSNSGNTATLTISRVEAGDEADYYCQVWDHSTNTMVFGGGTKLTVL | 0.0419 nM |
| BDG38.104 (antibody, V domains shown) VH: QMQLVESGGGVVQPGRSLTLSCAASGFEFRTYGMHWVRQAPGKGLEWVGVIWYDGSATHYADSVKGRFTITRDNSKNTLNLQMNSLRAEDTAVYYCVRAPQWYLTAEAFDLWGQGTMVTVSS VL: SYILTQPPSVSVAPGETATITCGGNLIGARLVHWYQQKPGQAPVLVIYDDSDRPSRIPERFSGSNIGNTATLTIEDVEEGDEADYYCQVWDYYSDSYVFGGGTKLTVL | 0.0381 nM |
| BDG38.099 (antibody, V domains shown) VH: QMQLVESGGGVVQPGRSLRLSCAASGFEFRTYGMHWVRQAPGKGLEWVGVIWYDGSNTHYADSVKGRFTITRDNSKNTLNLQMNSLRAEDTAVYYCVRAPQWYLTAEAFDLWGQGTMVTVSS VL: SYILTQPPSVSVAPGETARITCGGNLIGARLVHWYQQKPGQAPVLVIYDDSDRPSRIPERFSGSNIGNTATLTIEDVEEGDEADYYCQVWDYSSDSYVFGGGTKLTVL | 0.0601 nM |
| BDG38.085 (antibody, V domains shown) VH: QMQLVESGGGVVQPGRSLTLSCAASGFEFRTYGMHWVRQAPGKGLEWVGVIWYDGSNTHYADSVKGRFTITRDNSKNTLNLQMNSLRVEDTAVYYCVRAPQWYLTAEAFDLWGQGTMVTVSS VL: SYVLTQPPSVSVAPGETATITCGGNLIGARLVHWYQQKPGQAPVLVIYDDSDRPSRIPERFSGSNIGNTATLTIERVEAGDEADYYCQVWDYSSNSYVFGGGTKLTVL | 0.0236 nM |
| BDG38.093 (antibody, V domains shown) VH: QMQLVESGGGVVQPGRSLTLSCAASGFEFRTYGMHWVRQAPGKGLEWVGVIWYDGSNTHYADSVKGRFTITRDNSKNTLNLQMNSLRAEDTAVYYCVRAPQWYLTAEAFDLWGQGTMVTVSS VL: SYVLTQPPSVSVAPGQTARITCGGNLIGARLVHWYQQKPGQAPVLVIYDDSDRPSRIPERFSGSNIGNTATLTIERVEEGDEADYYCQVWDYSADSYVFGGGTKLTVL | 0.0402 nM |
| BDG38.088 (antibody, V domains shown) VH: QMQLVESGGGVVQPGRSLTLSCAASGFEFRTYGMHWVRQAPGKGLEWVGVIWYDGSNTHYADSVKGRFTITRDNSKNTLNLQMNSLRVEDTAVYYCVRAPQWYLTAEAFDLWGQGTMVTVSS VL: SYVLTQPPSVSVAPGETATITCGGNLIGARLVHWYQQKPGQAPVLVIYDDSDRPSRIPERFSGSNIGNTATLTISDVEAGDEADYYCQVWDYSSNTYVFGGGTKLTVL | 0.0486 nM |
| BDG38.105 (antibody, V domains shown) VH: QMQLVESGGGVVQPGRSLTLSCAASGFEFRTYGMHWVRQAPGKGLEWVGVIWYDGSNTHYADSVKGRFTITRDNSKNTLNLQMNSLRVEDTAVYYCVRAPQWYLTAEAFDLWGQGTMVTVSS VL: SYVLTQPPSVSVAPGETATITCGGNLIGARLVHWYQQKPGQAPVLVIYDDSDRPSRIPERFSGSNIGNTATLTIERVEAGDEADYYCQVWDYYSNSYVFGGGTKLTVL | 0.134 nM |
| BDG38.102 (antibody, V domains shown) VH: QMQLVESGGGVVQPGRSLRLSCAASGFEFRTYGMHWVRQAPGKGLEWVGVIWYDGSNTHYADSVKGRFTITRDNSKNTLNLQMNSLRAEDTAVYYCVRAPQWYLTAEAFDLWGQGTMVTVSS VL: SYVLTQPPSVSVAPGETATITCGGNLIGARLVHWYQQKPGQAPVLVVYDDSDRPSRIPERFSGSNIGNTATLTIEDVEAGDEADYYCQVWDYSSNTYVFGGGTKLTVL | 0.0421 nM |
| BDG38.089 (antibody, V domains shown) VH: QMQLVESGGGVVQPGRSLRLSCAASGFEFRTYGMHWVRQAPGKGLEWVGVIWYDGSATHYADSVKGRFTITRDNSKNTLNLQMNSLRVEDTAVYYCVRAPQWYLTAEAFDLWGQGTMVTVSS VL: SYILTQPPSVSVAPGETATITCGGNLIGARLVHWYQQKPGQAPVLVIYDDSDRPSRIPERFSGSNIGNTATLTISRVEEGDEADYYCQVWDHSSNHYVFGGGTKLTVL | 0.075 nM |
| BDG38.095 (antibody, V domains shown) VH: QMQLVESGGGVVQPGRSLTLSCAASGFEFRTYGMHWVRQAPGKGLEWVGVIWYDGSATHYADSVKGRFTITRDNSKNTLNLQMNSLRAEDTAVYYCVRAPQWYLTAEAFDLWGQGTMVTVSS VL: SYVLTQPPSVSVAPGQTATITCGGALIGSRLVHWYQQKPGQAPVLVVYDDSDRPSRIPERFSGSNIGNTATLTISRVEEGDEADYYCQVWDYYSDSYVFGGGTKLTVL | 0.0822 nM |
| BDG38.103 (antibody, V domains shown) VH: QMQLVESGGGVVQPGRSLRLSCAASGFEFRTYGMHWVRQAPGKGLEWVGVIWYDGSNTHYADSVKGRFTITRDNSKNTLNLQMNSLRVEDTAVYYCVRAPQWYLTAEAFDLWGQGTMVTVSS VL: SYVLTQPPSVSVAPGQTATITCGGNLIGARLVHWYQQKPGQAPVLVVYDDSDRPSRIPERFSGSNIGNTATLTISDVEEGDEADYYCQVWDYYSNSYVFGGGTKLTVL | 0.084 nM |
| BDG38.097 (antibody, V domains shown) VH: QMQLVESGGGVVQPGRSLRLSCAASGFEFRTYGMHWVRQAPGKGLEWLGVIWYDGSATHYADSVKGRFTITRDNSKNTLNLQMNSLRAEDTAVYYCVRAPQWYLTAEAFDLWGQGTMVTVSS VL: SYILTQPPSVSVAPGETATITCGGNLIGARLVHWYQQKPGQAPVLVIYDDSDRPSRIPERFSGSNIGNTATLTIERVEEGDEADYYCQVWDYYSDHYVFGGGTKLTVL | 0.0464 nM |
| BDG38.101 (antibody, V domains shown) VH: QMQLVESGGGVVQPGRSLRLSCAASGFEFRTYGMHWVRQAPGKGLEWVGVIWYDGSATHYADSVKGRFTITRDNSKNTLNLQMNSLRVEDTAVYYCVRAPQWYLTAEAFDLWGQGTMVTVSS VL: SYILTQPPSVSVAPGETATITCGGNLIGARLVHWYQQKPGQAPVLVIYDDSDRPSRIPERFSGSNIGNTATLTISRVEEGDEADYYCQVWDYSSNTYVFGGGTKLTVL | 0.0403 nM |
| BDG38.100 (antibody, V domains shown) VH: QMQLVESGGGVVQPGRSLRLSCAASGFEFRTYGMHWVRQAPGKGLEWVGVIWYDGSNTHYADSVKGRFTITRDNSKNTLNLQMNSLRVEDTAVYYCVRAPQWYLTAEAFDLWGQGTMVTVSS VL: SYVLTQPPSVSVAPGETARITCGGNLIGARLVHWYQQKPGQAPVLVIYDDSDRPSRIPERFSGSNIGNTATLTIERVEEGDEADYYCQVWDYYSNSYVFGGGTKLTVL | 0.0801 nM |

Now from value to binder:

| HEK-IL-13 [nM] (IC50, STAT6 reporter) | Binder |
| --- | --- |
| 0.0662 nM | BDG38.119 (antibody, V domains shown) VH: QMQLVESGGGVVQPGRSLRLSCAASGFEFRTYGMHWVRQAPGKGLEWVGVIWYDGSNTHYADSVKGRFTITRDNSKNTLNLQMNSLRAEDTAVYYCVRAPQWYLTAEAFDLWGQGTMVTVSS VL: SYILTQPPSVSVAPGETATITCGGNLIGARLVHWYQQKPGQAPVLVIYDDSDRPSRIPERFSGSNIGNTATLTISRVEEGDEADYYCQVWDYSSNTYVFGGGTKLTVL |
| 0.0545 nM | BDG38.111 (antibody, V domains shown) VH: QMQLVESGGGVVQPGRSLTLSCAASGFEFRTYGMHWVRQAPGKGLEWVGVIWDDGSATHYADSVKGRFTITRDNSKNTLNLQMNSLRVEDTAVYYCVRAPQWYLTAEAFDLWGQGTMVTVSS VL: SYVLTQPPSVSVAPGETATITCGGALIGARLVHWYQQKPGQAPVLVVYDDSDRPSRIPERFSGSNIGNTATLTISRVEAGDEADYYCQVWDYYANSYVFGGGTKLTVL |
| 0.0562 nM | BDG38.121 (antibody, V domains shown) VH: QMQLVESGGGVVQPGRSLRLSCAASGFEFRTYGMHWVRQAPGKGLEWVGVIWYDGSNTHYADSVKGRFTITRDNSKNTLNLQMNSLRAEDTAVYYCVRAPQWYLTAEAFDLWGQGTMVTVSS VL: SYILTQPPSVSVAPGETATITCGGNLIGARLVHWYQQKPGQAPVLVIYDDSDRPSRIPERFSGSNIGNTATLTISRVEAGDEADYYCQVWDYSSNTYVFGGGTKLTVL |
| 0.0659 nM | BDG38.108 (antibody, V domains shown) VH: QMQLVESGGGVVQPGRSLRLSCAASGFEFRTYGMHWVRQAPGKGLEWVGVIWYDGSNTHYADSVKGRFTITRDNSKNTLNLQMNSLRAEDTAVYYCVRAPQWYLTAEAFDLWGQGTMVTVSS VL: SYILTQPPSVSVAPGETATITCGGNLIGARLVHWYQQKPGQAPVLVIYDDSDRPSRIPERFSGSNIGNTATLTISDVEEGDEADYYCQVWDYYSNSYVFGGGTKLTVL |
| 0.0284 nM | BDG38.113 (antibody, V domains shown) VH: QMQLVESGGGVVQPGRSLTLSCAASGFEFRTYGMHWVRQAPGKGLEWVGVIWYDGSNTHYADSVKGRFTITRDNSKNTLNLQMNSLRAEDTAVYYCVRAPQWYLTAEAFDLWGQGTMVTVSS VL: SYVLTQPPSVSVAPGETATITCGGNLIGARLVHWYQQKPGQAPVLVIYDDSDRPSRIPERFSGSNIGNTATLTIEDVEEGDEADYYCQVWDYSSDSYVFGGGTKLTVL |
| 0.0989 nM | BDG38.114 (antibody, V domains shown) VH: QMQLVESGGGVVQPGRSLTLSCAASGFEFRTYGMHWVRQAPGKGLEWVGVIWYDGSNTHYADSVKGRFTITRDNSKNTLNLQMNSLRVEDTAVYYCVRAPQWYLTAEAFDLWGQGTMVTVSS VL: SYILTQPPSVSVAPGQTATITCGGNLIGARLVHWYQQKPGQAPVLVIYDDSDRPSRIPERFSGSNIGNTATLTIEDVEEGDEADYYCQVWDYSANSYVFGGGTKLTVL |
| 0.063 nM | BDG38.109 (antibody, V domains shown) VH: QMQLVESGGGVVQPGRSLRLSCAASGFEFRTYGMHWVRQAPGKGLEWVGVIWYDGSNTHYADSVKGRFTITRDNSKNTLNLQMNSLRAEDTAVYYCVRAPQWYLTAEAFDLWGQGTMVTVSS VL: SYILTQPPSVSVAPGQTATITCGGNLIGARLVHWYQQKPGQAPVLVIYDDSDRPSRIPERFSGSNIGNTATLTIERVEEGDEADYYCQVWDYSSNSYVFGGGTKLTVL |
